Test results: paper PMC4843017 (2016)
Where two headings read alike, the source gives them in different places.

Key:
[1] = target: T1, taxol-stabilized microtubules (α-/β-tubulin) (bovine, UniProt P81947 1-451; Q6B856 1-445)
[2] = target: T1, taxol-stabilized microtubules …; remark: listed apart in the source

T1 sequence (P81947 whole entry, chain 1 of 2): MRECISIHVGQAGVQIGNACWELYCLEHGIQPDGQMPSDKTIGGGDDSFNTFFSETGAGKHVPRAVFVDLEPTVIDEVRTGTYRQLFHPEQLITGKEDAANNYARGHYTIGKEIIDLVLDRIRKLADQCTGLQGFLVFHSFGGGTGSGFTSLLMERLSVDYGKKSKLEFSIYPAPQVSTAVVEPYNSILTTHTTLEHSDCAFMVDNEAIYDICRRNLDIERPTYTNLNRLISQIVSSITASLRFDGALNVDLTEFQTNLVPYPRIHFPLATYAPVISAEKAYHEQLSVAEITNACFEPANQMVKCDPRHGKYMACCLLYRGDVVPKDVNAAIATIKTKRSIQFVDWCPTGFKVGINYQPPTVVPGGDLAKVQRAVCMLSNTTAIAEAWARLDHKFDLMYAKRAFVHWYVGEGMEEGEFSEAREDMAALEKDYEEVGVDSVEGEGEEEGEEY
T1 sequence (Q6B856 whole entry, chain 2 of 2): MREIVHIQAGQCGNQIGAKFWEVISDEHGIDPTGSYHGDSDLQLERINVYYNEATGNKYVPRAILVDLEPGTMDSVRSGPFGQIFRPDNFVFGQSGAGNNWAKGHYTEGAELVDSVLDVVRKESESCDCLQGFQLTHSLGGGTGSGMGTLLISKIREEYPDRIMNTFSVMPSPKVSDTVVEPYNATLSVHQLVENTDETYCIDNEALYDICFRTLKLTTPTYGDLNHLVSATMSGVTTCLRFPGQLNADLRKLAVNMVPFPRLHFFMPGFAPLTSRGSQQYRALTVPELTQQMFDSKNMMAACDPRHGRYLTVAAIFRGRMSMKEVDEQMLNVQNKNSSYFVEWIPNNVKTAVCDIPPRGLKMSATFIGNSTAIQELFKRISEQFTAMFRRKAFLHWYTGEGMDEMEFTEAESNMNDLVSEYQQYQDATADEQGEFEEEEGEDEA

Binder	Kd [1] [nM]	Kd [2] [nM]
SKAP^103–225 (domain or fragment) TQTRATSKSLLPVRSKEVDVSKQLHSGGPENDVTKITKLRRENGQMKATDTATRRNVRKGYKPLSKQKSEEELKDKNQLLEAVNKQLHQKLTETQGELKDLTQKVELLEKFRDNCLAILESKG	1100	
SKAP^159–316 (expressed alone in E. coli) (domain or fragment) VRKGYKPLSKQKSEEELKDKNQLLEAVNKQLHQKLTETQGELKDLTQKVELLEKFRDNCLAILESKGLDPALGSETLASRQESTTDHMDSMLLLETLQEELKLFNETAKKQMEELQALKVKLEMKEERVRFLEQQTLCNNQVNDLTTALKEMEQLLEM		1620
